Experimental data taken from the DeepSol protein solubility set.

Assay: soluble on expression in E. coli; label from the status in PepcDB or PDB records

Sequence | soluble on expression in E. coli
MSLITCKFKNLGNLHAGGCGYIPLSSTREERVKNGSRVVSTALLSSYHKGIAFVIFPSHHHTPTRPPSPKPSGSGGYLLNLRRRDPPQAFLSGCPPLPPRGSVLLGCTPPRTQFFVFHVVSYPLVLQKLLQTRDQKSIGSNSSCDTSEMSDCWQVTLSI | not soluble
MSLITLYHCHGARSFRPLWMLEEMGLDYELKMLPFPPRVFAKEYLAINPLGTIPFMIDGDTKMTESSGICQYLGTRHGPTPLVVGVDDPAYGAYLNWMFFSDATLTFPQTLVLRYGTLEPNERRQPQVVEDYAKWFLGRLRAVEVAAGQGDYLCAGRFTAADVVNGYALRLASNLGLAKDFGPNVTAYWARLQQRDGYQRALEAETRAGEAQQVPKRAEGHHHHHH | soluble
MSLIYQIAKEFDFCYGHRVWSQELNPDFSLDPCLSCRHLHGHQGKVIVHLESRELQRGMVTDFAHLNWFKRFIDEVLDHRFIIDIDDPLFPTLLPHFADKSALVWMEEGYARVDFERIKGESSPILELYESFVVVRFVPTSESIASWLLELLRSRIQPLGVKVSSVEFLETPKSRARVYNEGHHHHHH | soluble
MSLKAKAAFFDIDGTLYREGLISEVFKKLIKYEIIDEEKWYKEVRPEFEKWDNRKGDYDDYLLKMTEIYVDALNGLSKSQVEFIASQVVNQKGERVYTYTRDRIKWHKERGHKIITISGSPIELVRNMAEKYGFDDYRGAEYLLDENDVYTGEVIPMWDSKSKERAVHELEAKYNIDLGESYAYGDTSGDLTMLKMVGNPVCINPTKELVKEILSDEEVKNKIRIIVERKDMIYKISSRCLECDCEFVLEGHHHHHH | soluble
MSLKALDEPPYLTVGTDVSAKYRGAFCEAKIKTAKRLVKVKVTFRHDSSTVEVQDDHIKGPMKVGAIVEVKNLDGAYQEAVINKLTDASWYTVVFDDGDEKTLRRSSLCLKGERHFAESETLDQLPLTNPEHFGTPVIGKKTNRGRRSNHIPEEESSSSSSDEDEDDRKQIDELLGKVVCVDYISLDKKKALWFPALVVCPDCSDEIAVKKDNIMVRSFKDGKFTSVPRKDVHEITSDTAPKPDAVLKQAFEQALEFHKSRTIPANWKTELKEDSSSSEAEEEEEEEDDEKEKEDNSSEEEEEIEPFPEERENFLQQLYKFMEDRGTPINKRPVLGYRNLNLFKLFRLVHKLGGFDNIESGAVWKQVYQDLGIPVLNSAAGYNVKCAYKKYLYGFEEYCRSANIEFQMALPEKVVNKQCKECENVKEIKVKEENETEIKEIKMEEERNIIPREGHHHHHH | soluble
MSLKALINGTIYTSFNPLKKVSGLVISHGKVIYAGDSEVAKKIVELSGGEIVDLKGKYVMPAFFDSHLHLDELGMSLEMVDLRGAKSIEELIQRLKRGKGRIIFGFGWDQDELGEWPTRKELNAIDKPVFIYRKCFHVAVANDKMLELLNLTPSKDFDEDTGIIKEKSLEEARKVINERVLTVEDYVYYIKRAQEHLLDLGVKSVSFMSVNEKALRALFYLEREGKLSINVFAYVTPEVLDKLESIGLGRFQGNRLTIAGVKLFTDGSLGARTALLSKPYSDDPSTSGQLVMEREELIRITEKARSLGLDVAIHAIGDKALDVALDVFETTGFPGRIEHASLVRDDQLERVKNLKVRLSVQPHFIISDWWIVERVGEERVKWVYRFKDLMKVAELGFSTDSPIEPADPWLTVDAAVNRGKGKVKLYELTKDQALDIKDALHSYTYGSARVSLASDIGKLEPGFKAEYIILDRDPLVVKEGHHHHHH | soluble
MSLKDSEVTVLGAGVAGLAVARALALRGAEVTVLEQAEAIREVGAGLQISPNGAAVLRALGLGDALEAASMRAQAVELRNGVGGDLVLKLDLARLRPGQGYHLMHRADLIDLLAQGAREAGVQIRLLQKIEAVDLGGPRPRLVTAQGAEYAPNLLIGADGLHSLVRAELNGPAQPFFTNQVAWRTVIPATPGEPVVAEVHMGEGRHLVSYPMRGGTVRNIVAVEERKRWVQEGWNLRDDPVDLRLAFAGFNGRVRHWLEQVPDVWLWGLFRHPVAHTWYRGHAAILGDAAHPTLPFLAQGANMALEDAWVLAECLARHSNIKGGLADYQARRVPRCCRVVQAANNNAWAYHLRSPIREIAHLGLRLGSRLLPGPTLRRFDWLYGYDVTAASLEHHHHHH | soluble
MSLKEELQLKQKLGGQKMVIQGDTLENSARRLLQERGVTMNDLAELVLFLQKDYIDNLTLDTCLESVDAVLTKREVHNAIITGVQLDILAEENKLLSPLQEILTEDEGLYGIDEIMALSIVNVYGSIGFTNYGYIDKVKPGILKELNAHDGEHVHTFLDDIVGAIAAAAASRLAHSQPDLSDITKEGGSHHHHHH | soluble
MSLKFSAKLVDDPSIEKSSSAIRLMCLSDTHGVHNNINKNTIFPADILLFAGDMTLFGNPEHAESFKNFITSLPVQHKVIISGNLDLPFDLKNYSHFTEWFSKFSYKNGPESIKTTFTEDQDIIYLEHQAVTIENVKIFGSPFTPAFGDFGFPTTKDTASKLWEQVPEDTDVILCHGPPHNICDMTSTGFHAGCPELRKSVERVKPAAVVFGHIHEAHGNTMIGNTLCCNVAIVNSNRDVAYGPTYIDLIQEGHHHHHH | soluble
MSLKFVGIVGSNAEQSYNRMLLEFIRKNFKTKFELEVLEIDDIPMFNQDQNWEESFQLRLLNNKITRADGVIIATPEHNHTITAALKSVLEWLSFAVHPLENKPVMIVGASYYDQGTSRAQIHLRKILDAPGVNAYTLPGNEFLLGKAKEAFDDNGNIINPGTVQFLETCLDNFIKYVGVVSSLRKPKAIESEDLYCQGQIDTTITGIDPDDPDWLDKAAEKVNAVEGDAYVKLDNGLLTVNQLNMFLNAMPFELTYADDNNQFLYYNNNHPDPDTMLGKRVREQVGNRMATVHGSLPPARMKNVEWVIGTLRNGNQEYVRTVVPGTPPEVINTHNYQAMYYPDGSYAGINEIIFNFKPWLDWYLQTTGQRLVGGTTAAPGASAVDATSSASTSTGDAPVDQATDATSGASEHEGHHHHHH | soluble
MSLKGDDIEEGKELVATHIAEGLYHDGKFVGYVKRAHDVDVNLNAHTMFENLVVKASGVLSAIQMLRHSKIDPAEIDYVIECSEEACGDINQRGGGNFAKSIAEIAGLQNATGSDTRGFCAAPTHALIQAAALVKAGIHKNVMVVAGGASAKLGMNAKDHVKKGLPVLEDVVGGFAVLVSENDGVNPVIRTDLTGKHTVGTGSSPQAVMTALITSGLDRANLKITDVDVYSVEMQNPDITKPAGAGDVPEANYKMIGALAVKRGDLEKKELKDFVSNKGLPGWAPTQGHIPSGAPYIGFLIDDLTTGNRNRAMIVGKGSLFLGRMTNLFDGVSFIAERNTGVTEETSGISKDEIKKIIAESMKKLALDMLEEGHHHHHH | not soluble
MSLKGKITLFFTALCFGLTGCIAPPKGLEKERFSINSYREISPQDLTCHCKTVRLGGKIVNTTVLANQTKIEVLSLPVSSISAKPFVELQSDGRFIVYFNGFVEPENLKERYITVGGQLAGTEKGKIEQADYTYPVVQADKYRIWTLSTTYDYPTDDWDEDDDWGFFRWRHRLWYVQPEIHYYLNEGGSHHHHHH | soluble
MSLKHRIEYAITNAVFVKADELSYLSFRVSGKVIEVYKDLGDYVKRGEALAKLDPTYYELEKRTLEKKMSALLEKKKALEIKIQKLEKGLHISLSAKKLKVESLKKKREALREKLLQVEEKIKLVKLDWERYKSLFQKGLIPRRKFEEVDTNLKVLLHEREYLEKSIQEINTEIKRAKKGIENARNEFKTIEELKKELSSLEEEIKSLKERIKTAEQKIKDTVLIAPFDGVVAKRFISRGDVVRAGQPAFALVNPESFYVEVLLEETKLKGVKVGNKAYVRLDAYPDILFEGVVEEISPASAATFALVPRDVSAGEFTKVVQRIPVKIKITKGDLSLLRVGMGGEVEIRRTREGHHHHHH | soluble
MSLKIEPCLPMKILIVEDDPLMQLGLEQALGAHERFEIIGRVDNGYGAVQQAAVLNPDLIVMDIGLPGLDGIEATKQIKQTSPQIHIVVLTSHTLPNEIIAALSSGADAYCVKGATLERLILAIAAAQDGATYLDPQIARVVVENLKPPVPEGQADVSSLSEREIDVLKLIVEGKSNQEIAQTLYLSTNTIKTHVRGIMNKLSVDDRVQAAVIALRSGLVEGHHHHHH | soluble
MSLKIEPKIFDELKTALVSFGDKYFVGEELNRSKLADDLRNYDEALLSKLFEVDFIMQHFVKEVAGQKLFQIEQLEEAVLYNDYWDTSYTKYENRVGLASKGKFLQDSQDVVLDFPFKDCVLTASMTKENNEEGYDDAFLNEVIEKDEIDRLFDKKVFVNVKRFGDNQGAQHSTAVDNEIVSFDKEKDNLIIKGNNLLALHALKNEFAGKVRQIYIDPPYNTGKDSFNYNDKFNHSSWLVFMKNRLEIAWELLSDDGTIWISIDGYESHYLKVLADGIFGAENFLDEVVWQRAYAPINLKKTFSKSHDYILVYAKNNSGAKELNRLPRKAEMVASYKNPDNDPRGVYKADNFSVGPAVEKNIYEITTPSGRKVLPPDGYSWRFSKERFEELLADNRVYFGKDGNSAPSYKRFLSEVKDGVVAQTLWTYQEVGHNQDAKKEIKSLFDGQTAFGTPKPEKLIQRILTLGSDENDLVLDFFMGSATTQAVAMKMNRRFIGIEQMDYISTVSVPRLQKVIEGEQGGISKDVNWQGGGSFVYAELFPKNMGYLQDVIHAKDLEELKSVYERMLSGTDTDEPADISFRADLSKIDWLQGFDENKRLLVKLLDKNGLYYNYSEIDDKNVRDLISDEDYTFNKNFYEGGEGHHHHHH | soluble
MSLKITDVDVWVVNLPLVNPFTSSFETKTGETRTVVRVRTDSGVEGWGETMWGAPVAAIVRRMAPDLIGTSPFALEAFHRKQHMVPFFYGYLGYAAIAAVDVACWDAMGKATGQSVTDLLGGAVRDEVPITALITRADAPGATPADLPKAMAEHAVRVVEEGGFDAVKLKGTTDCAGDVAILRAVREALPGVNLRVDPNAAWSVPDSVRAGIALEELDLEYLEDPCVGIEGMAQVKAKVRIPLCTNMCVVRFEDFAPAMRLNAVDVIHGDVYKWGGIAATKALAAHCETFGLGMNLHSGGELGIATAAHLAVVSSTPVLSRAIDSMYYLHADDIIEPLHLENGRLRVPSGPGLGVSVDEDKLRHYAGVNERDGDLTGEGHHHHHH | soluble
MSLKITQIQAQNKNKNRRNVFVDGSYEFSCDMEIILKYKLKEGLEIDRTKLLQVIDQSKEEFAFRLALNYLSFKSRTSFEIYTYLLKKEYEEKIIEKVIEKLKYYRYVDDNQYVLNYIKTALAEGKKGKDRVQSDLINKKIPQDMIESHMHLFSCETNLEIAKELSNKYFKQNAHLPFNQFKNKLSQFLMRKGFNWEIINTCLNILEQDSEEGHHHHHH | soluble
MSLKITSIETIPIKVPIKPEFAIRSGRGGSHVVSPFLLVKVHTDAGITGLGEVSCTPRWSGEDQVSAAHFIKTYLAPLLEGEDPRQIESLTAKFRLGVAGNFFTKSGIEMALWDIAGKAAGKPVYELLGGTVREFIPTKWSVSGQEPDKAADIARWAVAQGFKAMKVKVGIEPDKDVARVAAVRAAIGSQIKLGVDANGGWSREVAASTIERLYASSIYFAEQPIPPEDLLYLPELRKQLKVPIIADESIYSLQDAMTLAHLQAADVFSIYVGKAGGIGPARKIAQFAESVGLKCTVGSNLELGIGSAAMIHLAIATHAIDAESYPCDIIGPMFYEDDMLVEPLPIVAGKAQPNSKPGLGVELNEKTVEKYRVCEGHHHHHH | soluble
MSLKKFYHLVVRILSKMITPQVIDKPHIVFMMTFPEDIKPIIKALNNSSYQKTVLTTPKQAPYLSELSDDVDVIEMTNRTLVKQIKALKSAQMIIIDNYYLLLGGYNKTSNQHIVQTWHASGALKNFGLTDHQVDVSDKAMVQQYRKVYQATDFYLVGCEQMSQCFKQSLGATEEQMLYFGLPRINKYYTADRATVKAELKDKYGITNKLVLYVPTYREDKADNRAIDKAYFEKCLPGYTLINKLHPSIEDSDIDDVSSIDTSTLMLMSDIIISDYSSLPIEASLLDIPTIFYVYDEGTYDQVRGLNQFYKAIPDSYKVYTEEDLIMTIQEKEHLLSPLFKDWHKYNTDKSLHQLTEYIDKMVTKEGGSHHHHHH | soluble
